{"source": "paper PMC5662943", "origin": "cited, not measured here", "biological_target": "PCNA (Homo sapiens) (UniProt P12004)", "sequence (P12004 whole entry)": "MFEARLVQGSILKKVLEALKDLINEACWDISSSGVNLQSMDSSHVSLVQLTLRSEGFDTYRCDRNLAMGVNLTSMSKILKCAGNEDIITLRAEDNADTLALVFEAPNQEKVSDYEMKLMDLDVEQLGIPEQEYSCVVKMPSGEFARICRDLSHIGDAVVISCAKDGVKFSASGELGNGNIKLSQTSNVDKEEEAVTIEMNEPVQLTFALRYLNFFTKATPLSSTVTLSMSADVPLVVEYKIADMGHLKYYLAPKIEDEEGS", "data": [{"substance": "RFC (from UniProt P35251)", "values": [{"measurement": "Kd", "value": 200, "unit": "pM"}]}]}
